Reference: patent publication US20180244783A1, “COMBINATION THERAPY FOR TREATMENT OF DISEASE” (OncoMed Pharmaceuticals, Inc., priority 2015, published 2018)

How the values were obtained:
B16F10 melanoma = B16F10 melanoma tumor growth in mice; assay type: in vivo; conditions: B16F10 melanoma in C57b16/J mice; vs control antibody (Hamster IgG); 18R5 45 mg/kg Q2W, 54F28 50 mg/kg Q2W, anti-CTLA-4 (4F10-11) 10 mg/kg 3QW; n=10
Method: B16F10 melanoma cells were implanted into the rear flanks of C57b16/J mice. When tumors reached a mean tumor volume of ˜100 mm^3 as measured by electronic caliper, mice were grouped and treated with a control antibody (Hamster IgG, 10 mg/kg, 3QW), 18R5 (45 mg/kg, Q2W), anti-CTLA-4 (4F10-11, 10 mg/kg, 3QW), 54F28 (50 mg/kg, Q2W), or a combination of 18R5+ anti-CTLA-4 or 54F28+ anti-CTLA-4. […] Data shown represents the mean ±SEM (n=10).

B16F10 target cells = test: T cell cytotoxicity, calcein release from B16F10 target cells; assay type: in vivo, mouse; conditions: splenocytes of treated B16F10 tumor-bearing mice, cultured 6 days with mgp100 peptide; effector:target 25:1; vs Hamster IgG; FIG. 2B
Method: To measure changes in T cell toxicity, the mouse melanoma cell line B16F10 was cultured in DMEM culture medium supplemented with 10% (v/v) fetal bovine serum (FBS), 2 mM L-glutamine, and 100 U/mL penicillin at 37° C. in a humidified atmosphere of 5% CO2. Total splenocytes from were cultured for 6 days in RPMI 1640 medium supplemented with 10% FBS, 2 mM L-glutamine, 100 U/mL penicillin, and 1 μg/mL mgp100 peptide (Anaspec). B16F10 target cells were labeled with 10 μM calcein AM (Life Technologies) for 1 hour at 37° C. and then combined with the splenocytes at an effector:target ratio of 25:1. Following a four-hour incubation at 37° C., cell-free supernatants were harvested and calcein release was quantified on a fluorometer at an excitation of 485 nm and an emission of 535 nm. The percentage of specific cell lysis was determined as: % lysis=100×(ER-SR)/(MR-SR), where ER, SR, and MR represent experimental, spontaneous, and maximum calcein release, respectively. Spontaneous release is the fluorescence emitted by target cells incubated in media alone (i.e., in the absence of effector cells), while maximum release is determined by lysing target cells with an equal volume of 10% SDS. For all groups, p<0.05 vs. Hamster IgG.

B16F1 melanoma cells = test: B16F1 melanoma tumor growth with GVAX, anti-CTLA-4 and anti-PD-L1; assay type: in vivo; conditions: C57BL6J mice, murine chimera 18R5 added to anti-CTLA-4 (9D9) + anti-PD-L1 (10F.9G2), compared to these antibodies without 18R5, FIGS. 3A-3D
Method: The effect of the anti-Fzd antibody, OMP-18R5, on melanoma cell line tumor growth was tested animals receiving the combination of anti-CTLA-4 and anti-PD-L1 antibodies. In these experiments, ten thousand B16F1 melanoma cells were injected subcutaneously into C57BL6J mice. On days 4, 7, and 10 post-implantation, “GVAX” tumor vaccine was administered by the injection of 2 million mitomycin C-treated cells of a B16F1 subclone stably transfected with a plasmid encoding m-GM-CSF (with GM-CSF expression confirmed by ELISA), as previously described by Curran and Allison, Cancer Res 69:7747, 2009. Anti-CTLA-4 clone 9D9 (BioXCell; West Lebanon, N.H.) was dosed on days 5, 8, and 12. Anti-PD-L1 clone 10F.9G2 (BioXCell) was dosed on days 5, 8, 12, 14, 19, 22, and 26, and either 1B7.11 isotype or murine chimera 18R5 were administered days 5, 12, 19, and 26 following parental B16F1 cell implantation.

splenocytes = test: ELISpot cytokine secretion assay of splenocytes (hgp100 peptide); assay type: in vivo, mice; conditions: splenocytes with 1 μg/ml hgp100 peptide, 18R5 added to anti-CTLA-4 + anti-PD-L1 therapy
Method: Using the ELISpot cytokine secretion assay, secretion of IFN-gamma and IL-2 was measured following 18R5 treatment. In these assays, splenocytes were harvested from a minimum of four mice per group, filtered, and the red blood cells lysed and re-suspended in RPMI+10% FBS+penn/strep at a concentration of 10^6 cells/ml in the presence of 1 μg/ml hgp100 peptide. Cells were plated on pre-coated ELISpot plates, incubated overnight and processed according to manufacturer's instructions (MabTech, Cincinnati, Ohio). Developed plates were read on a BioSys BioReader 6000-F b. The results from this assay are shown in FIG. 4A (IFN-gamma) and FIG. 4B (IL-2). Values shown are total optical density. As shown in these figures, IFN-gamma and IL-2 were increased by addition of 18R5 therapy.

B16F1 tumors = test: T-cell tumor infiltration by flow cytometry (FACS); assay type: in vivo, mice; conditions: compared to anti-CTLA-4 + anti-PD-L1 without 18R5 (or control antibodies)
Method: The change is T-cell tumor infiltration was also measured. Here, B16F1 tumors were isolated from control antibody, anti-CTLA-4 and anti-mouse PD-L1 combination; and anti-mouse Fzd7 (18R5)+anti-mouse anti-CTLA-4+ anti-mouse PD-L1 combination antibody-treated mice. Single cell suspensions were acquired from 4-6 independently treated tumors and were stained for tumor infiltrating immune cells using fluorescently-labeled anti-CD45, anti-CD4, and anti-CD8 antibodies. Flow cytometry analysis (FACS) was performed and the relative percentage populations of CD45+/CD4+ and CD45+/CD8+ T cells are shown.

54F28: FZD8-Fc soluble receptor, SEQ ID NO:41 (SEQ ID NO:45 with signal sequence)
anti-tumor growth vs control (B16F10 melanoma): significant anti-tumor growth | T cell cytotoxicity (specific cell lysis) (B16F10 target cells): increased

B1: 18R5: anti-FZD IgG2 antibody binding FZD1, FZD2, FZD5, FZD7, FZD8; heavy chain SEQ ID NO:11, light chain SEQ ID NO:12 (antibody)
heavy: EVQLVESGGGLVQPGGSLRLSCAASGFTFSHYTLSWVRQAPGKGLEWVSVISGDGSYTYYADSVKGRFTISSDNSKNTLYLQMNSLRAEDTAVYYCARNFIKYVFANWGQGTLVTVSSASTKGPSVFPLAPCSRSTSESTAALGCLVKDYFPEPVTVSWNSGALTSGVHTFPAVLQSSGLYSLSSVVTVPSSNFGTQTYTCNVDHKPSNTKVDKTVERKCCVECPPCPAPPVAGPSVFLFPPKPKDTLMISRTPEVTCVVVDVSHEDPEVQFNWYVDGVEVHNAKTKPREEQFNSTFRVVSVLTVVHQDWLNGKEYKCKVSNKGLPAPIEKTISKTKGQPREPQVYTLPPSREEMTKNQVSLTCLVKGFYPSDIAVEWESNGQPENNYKTTPPMLDSDGSFFLYSKLTVDKSRWQQGNVFSCSVMHEALHNHYTQKSLSLSPGK
light: DIELTQPPSVSVAPGQTARISCSGDNIGSFYVHWYQQKPGQAPVLVIYDKSNRPSGIPERFSGSNSGNTATLTISGTQAEDEADYYCQSYANTLSLVFGGGTKLTVLGQPKAAPSVTLFPPSSEELQANKATLVCLISDFYPGAVTVAWKADSSPVKAGVETTTPSKQSNNKYAASSYLSLTPEQWKSHRSYSCQVTHEGSTVEKTVAPTECS
modifications: Heavy chain amino acid sequence without predicted signal sequence; Light chain amino acid sequence without predicted signal sequence
T cell cytotoxicity (specific cell lysis) (B16F10 target cells): increased | tumor growth (B16F1 melanoma cells): decreased | IFN-gamma secretion (ELISpot, total optical density) (splenocytes; FIG. 4A): increased | IL-2 secretion (ELISpot, total optical density) (splenocytes; FIG. 4B): increased | CD4+ T cell tumor infiltration (CD45+/CD4+) (B16F1 tumors; FIG. 6A): increased | CD8+ T cell tumor infiltration (CD45+/CD8+) (B16F1 tumors; FIG. 6B): increased
